Laboratory results published in patent publication US20060216692, “Switchable nucleic acids for diagnostics, screening and molecular electronics” (published 2006).

T1: NCp7 (nucleocapsid protein, Zn2.NCp7(1-55)) (HIV-1, UniProt P35962 SEQ:1-55)
T1 chain: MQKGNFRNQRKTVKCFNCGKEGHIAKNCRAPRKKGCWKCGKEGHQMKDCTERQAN

B1: 154mer packaging domain (ssRNA)
RNA: GGAGCUCUCUCGACGCAGGACUCGGCUUGCUGAAGCGCGCACGGCAAGAGGCGAGGGGCGGCGACUGGUGAGUACGCCAAAAAUUUUGACUAGCGGAGGCUAGAAGGAGAGAGAUGGGUGCGAGAGCGUCAGUAUUAAGCGGGGGAGAAUUAGA

How the values were obtained:
[1] = molecular target: NCp7 (nucleocapsid protein, Zn2.NCp7(1-55)) (HIV-1) (UniProt P35962); details: Trp assay; virtually identical Kd to 20mer
[2] = molecular target: T1, NCp7 (nucleocapsid protein, …); assay: Trp37 quenching, 0.2 M NaCl; equivalent of three NCp7 bound with high affinity per RNA; details: about 3 per 154mer); SL1-SL4 stem-loops

Row | Molecule | binding signal (fold of SL3 20mer) [1] | binding result [2]
1 | SL3 16mer | 1 | 
2 | B1 |  | binds
